The record followed here is the DeepSol protein solubility set.

The nature of this data set: soluble on expression in E. coli; label from the status in PepcDB or PDB records.
On to “GFVEPHVHPLIASIMLPNEIIAPYDWVLPHTVKKGVQDHDSYLKAVTKSVNENANKDEVYFIWGYHQLWHGELNRDILNNISKDKPIAIIHRSFHEIFLNDAAISKLGIKKSDFANNPQVYWEKGHFYEGGWFALVPMMASELLAPKKYLQGLAMMSELVEKNGITTIGEPGFPSSSFDTEYTLLKQEMDTKPPFDIFLIPNGTQLYGMKGSNENALTFMNSLPEKYNTSNIQFLPKQVKLFADGAIYSQLMQMKDGYIDGHKGEWITPLALFQQQLDFYWDRDFKIHTHANGDLGIQEVMGFVSKAQKRTPRKDHRFTLHHMGYFDDTQAQQVADLQIDASVNPYYLWALADKYAEHGLGKERGENLVRMKSLTDRGVHLSFHSDFSMAPMEPLTLAWTAVNRITSQGSKFSQAQRLDMYTAMKAITIGAARVLSQEHKIGSIKKGKTANFTILAENPFKVEPIALKDIDIITTVFRGTLSKPLH”, for which the “soluble on expression in E. coli” value is reported as “not soluble”.

In the case of “MGHHHHHHSHMATGTPESQARFGQSVKGLLTEKVTTCGTDVIALTKQVLKGSRSSELLGQAARNMVLQEDAILHSEDSLRKMAIITTHLQYQQEAIQKNVEQSSDLQDQLNHLLK”, the “soluble on expression in E. coli” value was “not soluble”.

Regarding “MKIAIPKERRPGEDRVAISPEVVKKLVGLGFEVIVEQGAGVGASITDDALTAAGATIASTAAQALSQADVVWKVQRPMTAEEGTDEVALIKEGAVLMCHLGALTNRPVVEALTKRKITAYAMELMPRISRANSMDILSSQSNLAGYRAVIDGAYEFARAFPMMMTAAGTVPPARVLVFGVGVAGLQAIATAKRLGAVVMATDVRAATKEQVESLGGKFITVDDEAMKTAETAGGYAKEMGEEFRKKQAEAVLKELVKTDIAITTALIPGKPAPVLITEEMVTKMKPGSVIIDLAVEAGGNCPLSEPGKIVVKHGVKIVGHTNVPSRVAADASPLFAKNLLNFLTPHVDKDTKTLVMKLEDETVSGTCVTRDGAIVHPALTGQGA”, the “soluble on expression in E. coli” value is recorded as “soluble”.

With “MSLKSRTIKSIEVFPVQLPVKRTFNFASGSAGAQGSLAKLVFVKVTDSEGCHGWGEGRAHPQWSYETPESLVSTLRKHLAPAVIGLDIWDRRNLHARMHAAVGRGPSTGMPVAKAALDIAVHDLCARASGLPLRAFLGGSSEKTEVALSWTVAVKSPAEVGDDVAAGRSEGFAHFNFKVGVSLKQDEELVRAARTHVPADSFLWMDANQGVEFTRAVRLARVLEEHAVNVLEQPLAADQMHQMRHLRSQTAIPLAVDESSVSPGDYFAHAAEGLVDYFVLKLTRTGGIWPTLLQLGTATSAGHGLLVSGLSDSMVTKLAACQVAAAFGFTGPAALNGSQFLDDSVLFPTKSAVERRGIVHLDTSPGLGIEPDENALRAHAWKTDCVEGHHHHHH”, the “soluble on expression in E. coli” value was “soluble”.

For “MASFARRAMSLAQIPSARISSGAASIGQRRCLAGAADHHGSTKVDFWKQPTNPGNWKEEHFVLISLSGWGLLFYSGYKLATGGKKEYTMSFIVTRKTFYGETSHSHALCFPF”, the “soluble on expression in E. coli” value is “not soluble”.

With “MEIKPTPSPPEERTIYVANFSEEVDEELLEELFIQAGPVVKVILRDVRDSNAKFALVEFEDELSVLFAIELMNGVRLFNQELQVKPRNGTNQEELYKRKKGEIEERVRSVAAPDRDGRRDSYRDDRNRNRNGNNRDSWQQQQPPRHHRQYDPLPPPPPPPLMGGSGGHWRSGGERGPPQYSTPQMLPHQHFVNQMMQQQINRSAPPYNGRHQNSTPHRHHDRHGYDRSSSRHHRNDDRRRSAHFLDIRKFQAPPTSWAFGNFQCFFWNLFSKITYLQEVGGA”, the “soluble on expression in E. coli” value is on record as “not soluble”.

On to “MVNFKDKSMPTAIEKALDFIGGMNTSASVPHSMDESTAKGILKYLHDLGVPVSPEVVVARGEQEGWNPEFTKKVAGWAEKVASGNRILIKNPEYFSTYMQEQLKELVLEHHHHHH”, for which the “soluble on expression in E. coli” value was “soluble”.

With “MLVKDFMTRNPITIAPETSFSEALKLMKQNKIKRLIVMKNEKIVGIVTEKDLLYASPSKATTLNIWELHYLLSKLKIEEIMTKDVVTVNENTPIEDAARIMEEKDISGLPVVDDAGRLVGIITQTDIFKVFVEIFGTKREGTIRYTMEMPDKPGELLEVAKRIYEAGGNIISIATLFEEGKDSYLATLRVENIDHEKFVKSLDEIDVKLLYYHSN”, the “soluble on expression in E. coli” value is reported as “soluble”.
